Results from patent US20210246166A1 (Bayer, published 2021).
Numbered stars: 1 amine (or outer) side, 2 acyl side, 3 side chain; on linkers, the order of the positions; unused ones are H or OH. Bridge positions count the residues as written; N and C are the ends. Square brackets hold non-standard residues; d marks the D form. Ends that are not written are not given here. Phe(2,5-F2) = 2,5-difluorophenylalanine, O=C([C@H](Cc1cc(F)ccc1F)N[*:1])[*:2]; X12 = (S)‑(trifluoromethyl)‑L‑cysteine, O=C([C@H](CSC(F)(F)F)N[*:1])[*:2]; Oic = O=C(O)[C@@H]1C[C@@H]2CCCC[C@@H]2N1; Phe(2-Cl) = N[C@@H](Cc1ccccc1Cl)C(=O)O; tBuAla = CC(C)(C)C[C@H](N)C(=O)O; Chg = N[C@H](C(=O)O)C1CCCCC1; Pen = CC(C)(S)[C@H](N)C(=O)O; ΔPro = O=C(O)[C@@H]1C=CCN1; 4Amb = NCc1ccc(C(=O)O)cc1; NMeC = CN[C@@H](CS)C(=O)O; Orn = NCCC[C@H](N)C(=O)O; Abu = CC[C@H](N)C(=O)O; Sar = CNCC(=O)O

B1: (Orn)-IC+SRS-((S)-(trifluoromethyl)-L-cysteine)-PPI-(Pen)+IP-NH2 (peptide)
peptide: [Orn]ICSRS[X12]PPI[Pen]IP-NH2
modifications: disulfide 3-11; N-terminus assumed
SMILES: CC[C@H](C)[C@H](NC(=O)[C@@H](N)CCCN)C(=O)N[C@H]1CSSC(C)(C)[C@@H](C(=O)N[C@H](C(=O)N2CCC[C@H]2C(N)=O)[C@@H](C)CC)NC(=O)[C@H]([C@@H](C)CC)NC(=O)[C@@H]2CCCN2C(=O)[C@@H]2CCCN2C(=O)[C@H](CSC(F)(F)F)NC(=O)[C@H](CO)NC(=O)[C@H](CCCNC(=N)N)NC(=O)[C@H](CO)NC1=O
B2: AIC+SRSLP-(Oic)-IC+IPD-NH2 (peptide)
peptide: AICSRSLP[Oic]ICIPD-NH2
modifications: disulfide 3-11; N-terminus assumed
SMILES: CC[C@H](C)[C@H](NC(=O)[C@H](C)N)C(=O)N[C@H]1CSSC[C@@H](C(=O)N[C@H](C(=O)N2CCC[C@H]2C(=O)N[C@@H](CC(=O)O)C(N)=O)[C@@H](C)CC)NC(=O)[C@H]([C@@H](C)CC)NC(=O)[C@@H]2C[C@@H]3CCCC[C@@H]3N2C(=O)[C@@H]2CCCN2C(=O)[C@H](CC(C)C)NC(=O)[C@H](CO)NC(=O)[C@H](CCCNC(=N)N)NC(=O)[C@H](CO)NC1=O
B3: AIC+SRSL-(L-dehydroproline)-(Oic)-I-(Pen)+IPD-OH (peptide)
peptide: AICSRSL[ΔPro][Oic]I[Pen]IPD-OH
modifications: disulfide 3-11; N-terminus assumed
SMILES: CC[C@H](C)[C@H](NC(=O)[C@H](C)N)C(=O)N[C@H]1CSSC(C)(C)[C@@H](C(=O)N[C@H](C(=O)N2CCC[C@H]2C(=O)N[C@@H](CC(=O)O)C(=O)O)[C@@H](C)CC)NC(=O)[C@H]([C@@H](C)CC)NC(=O)[C@@H]2C[C@@H]3CCCC[C@@H]3N2C(=O)[C@@H]2C=CCN2C(=O)[C@H](CC(C)C)NC(=O)[C@H](CO)NC(=O)[C@H](CCCNC(=N)N)NC(=O)[C@H](CO)NC1=O
B4: (2-(3-Pyridyl)acetic acid)-IC+SRS-((tBu)A)-PPI-(Pen)+IP-NH2 (peptide)
peptide: {2‑(3-Pyridyl)acetyl}-ICSRS[tBuAla]PPI[Pen]IP-NH2
modifications: disulfide 2-10
B5: (Orn)-IC+SRSLPPIC+I-NH2 (peptide)
peptide: [Orn]ICSRSLPPICI-NH2
modifications: disulfide 3-11; N-terminus assumed
SMILES: CC[C@H](C)[C@H](NC(=O)[C@@H]1CSSC[C@H](NC(=O)[C@@H](NC(=O)[C@@H](N)CCCN)[C@@H](C)CC)C(=O)N[C@@H](CO)C(=O)N[C@@H](CCCNC(=N)N)C(=O)N[C@@H](CO)C(=O)N[C@@H](CC(C)C)C(=O)N2CCC[C@H]2C(=O)N2CCC[C@H]2C(=O)N[C@@H]([C@@H](C)CC)C(=O)N1)C(N)=O
B6: (Abu)-IC+SRSLPPIC+IPD-NH2 (peptide)
peptide: [Abu]ICSRSLPPICIPD-NH2
modifications: disulfide 3-11; N-terminus assumed
SMILES: CC[C@H](N)C(=O)N[C@H](C(=O)N[C@H]1CSSC[C@@H](C(=O)N[C@H](C(=O)N2CCC[C@H]2C(=O)N[C@@H](CC(=O)O)C(N)=O)[C@@H](C)CC)NC(=O)[C@H]([C@@H](C)CC)NC(=O)[C@@H]2CCCN2C(=O)[C@@H]2CCCN2C(=O)[C@H](CC(C)C)NC(=O)[C@H](CO)NC(=O)[C@H](CCCNC(=N)N)NC(=O)[C@H](CO)NC1=O)[C@@H](C)CC
B7: AIC+SRS-((2,5-Difluoro)F)-PPI-((N-Me)C)+IPD-NH2 (peptide)
peptide: AICSRS[Phe(2,5-F2)]PPI[NMeC]IPD-NH2
modifications: disulfide 3-11; N-terminus assumed
SMILES: CC[C@H](C)[C@H](NC(=O)[C@H](C)N)C(=O)N[C@H]1CSSC[C@@H](C(=O)N[C@H](C(=O)N2CCC[C@H]2C(=O)N[C@@H](CC(=O)O)C(N)=O)[C@@H](C)CC)N(C)C(=O)[C@H]([C@@H](C)CC)NC(=O)[C@@H]2CCCN2C(=O)[C@@H]2CCCN2C(=O)[C@H](Cc2cc(F)ccc2F)NC(=O)[C@H](CO)NC(=O)[C@H](CCCNC(=N)N)NC(=O)[C@H](CO)NC1=O
B8: AIC+SRS-((tBu)A)-P-(Oic)-I-((N-Me)C)+IPD-OH (peptide)
peptide: AICSRS[tBuAla]P[Oic]I[NMeC]IPD-OH
modifications: disulfide 3-11; N-terminus assumed
SMILES: CC[C@H](C)[C@H](NC(=O)[C@H](C)N)C(=O)N[C@H]1CSSC[C@@H](C(=O)N[C@H](C(=O)N2CCC[C@H]2C(=O)N[C@@H](CC(=O)O)C(=O)O)[C@@H](C)CC)N(C)C(=O)[C@H]([C@@H](C)CC)NC(=O)[C@@H]2C[C@@H]3CCCC[C@@H]3N2C(=O)[C@@H]2CCCN2C(=O)[C@H](CC(C)(C)C)NC(=O)[C@H](CO)NC(=O)[C@H](CCCNC(=N)N)NC(=O)[C@H](CO)NC1=O
B9: aIC+SRS-((S)-(trifluoromethyl)-L-cysteine)-PPI-(Pen)+IP-NH2 (peptide)
peptide: [dA]ICSRS[X12]PPI[Pen]IP-NH2
modifications: disulfide 3-11; N-terminus assumed
SMILES: CC[C@H](C)[C@H](NC(=O)[C@@H](C)N)C(=O)N[C@H]1CSSC(C)(C)[C@@H](C(=O)N[C@H](C(=O)N2CCC[C@H]2C(N)=O)[C@@H](C)CC)NC(=O)[C@H]([C@@H](C)CC)NC(=O)[C@@H]2CCCN2C(=O)[C@@H]2CCCN2C(=O)[C@H](CSC(F)(F)F)NC(=O)[C@H](CO)NC(=O)[C@H](CCCNC(=N)N)NC(=O)[C@H](CO)NC1=O
B10: (Orn)-IC+SRSLPP-(Chg)-C+IPD-OH (peptide)
peptide: [Orn]ICSRSLPP[Chg]CIPD-OH
modifications: disulfide 3-11; N-terminus assumed
SMILES: CC[C@H](C)[C@H](NC(=O)[C@@H](N)CCCN)C(=O)N[C@H]1CSSC[C@@H](C(=O)N[C@H](C(=O)N2CCC[C@H]2C(=O)N[C@@H](CC(=O)O)C(=O)O)[C@@H](C)CC)NC(=O)[C@H](C2CCCCC2)NC(=O)[C@@H]2CCCN2C(=O)[C@@H]2CCCN2C(=O)[C@H](CC(C)C)NC(=O)[C@H](CO)NC(=O)[C@H](CCCNC(=N)N)NC(=O)[C@H](CO)NC1=O
B11: ((N-Me)G)-IC+SRSLPPI-((N-Me)C)+IPD-OH (peptide)
peptide: [Sar]ICSRSLPPI[NMeC]IPD-OH
modifications: disulfide 3-11; N-terminus assumed
SMILES: CC[C@H](C)[C@H](NC(=O)CNC)C(=O)N[C@H]1CSSC[C@@H](C(=O)N[C@H](C(=O)N2CCC[C@H]2C(=O)N[C@@H](CC(=O)O)C(=O)O)[C@@H](C)CC)N(C)C(=O)[C@H]([C@@H](C)CC)NC(=O)[C@@H]2CCCN2C(=O)[C@@H]2CCCN2C(=O)[C@H](CC(C)C)NC(=O)[C@H](CO)NC(=O)[C@H](CCCNC(=N)N)NC(=O)[C@H](CO)NC1=O
B12: AIC+SRSL-((4aR,6aR,9S,11aS)-11-Oxo-2,3,4,4a,6a,7,8,9,11,11a-decahydro-1H-pyrido[3,2-e]pyrrolo[1,2-a]azepine-9-carboxylic acid)-IC+IPD-NH2 (peptide)
peptide: AICSRSL[(4aR,6aR,9S,11aS)‑11‑Oxo‑2,3,4,4a,6a,7,8,9,11,11a‑decahydro‑1H‑pyrido(3,2-e)pyrrolo(1,2-a)azepine‑9‑carboxylic acid]ICIPD-NH2
modifications: disulfide 3-10
B13: AIC+SRS-((2-Chloro)F)-PPI-((N-Me)C)+IPD-NH2 (peptide)
peptide: AICSRS[Phe(2-Cl)]PPI[NMeC]IPD-NH2
modifications: disulfide 3-11; N-terminus assumed
SMILES: CC[C@H](C)[C@H](NC(=O)[C@H](C)N)C(=O)N[C@H]1CSSC[C@@H](C(=O)N[C@H](C(=O)N2CCC[C@H]2C(=O)N[C@@H](CC(=O)O)C(N)=O)[C@@H](C)CC)N(C)C(=O)[C@H]([C@@H](C)CC)NC(=O)[C@@H]2CCCN2C(=O)[C@@H]2CCCN2C(=O)[C@H](Cc2ccccc2Cl)NC(=O)[C@H](CO)NC(=O)[C@H](CCCNC(=N)N)NC(=O)[C@H](CO)NC1=O
B14: (4-(Aminomethyl)benzoic acid)-IC+SRS-((tBu)A)-PPI-((N-Me)C)+IPD-NH2 (peptide)
peptide: [4Amb]ICSRS[tBuAla]PPI[NMeC]IPD-NH2
modifications: disulfide 3-11; N-terminus assumed
SMILES: CC[C@H](C)[C@H](NC(=O)c1ccc(CN)cc1)C(=O)N[C@H]1CSSC[C@@H](C(=O)N[C@H](C(=O)N2CCC[C@H]2C(=O)N[C@@H](CC(=O)O)C(N)=O)[C@@H](C)CC)N(C)C(=O)[C@H]([C@@H](C)CC)NC(=O)[C@@H]2CCCN2C(=O)[C@@H]2CCCN2C(=O)[C@H](CC(C)(C)C)NC(=O)[C@H](CO)NC(=O)[C@H](CCCNC(=N)N)NC(=O)[C@H](CO)NC1=O
B15: (2-(Cyclohexylamino)acetyl)-IC+SRS-((tBu)A)-PPI-(Pen)+IPD-NH2 (peptide)
peptide: [2‑(Cyclohexylamino)acetyl]ICSRS[tBuAla]PPI[Pen]IPD-NH2
modifications: disulfide 3-11
B16: AIC+SRS-((tBu)A)-P-(Oic)-I-C+IPD-NH2 (peptide)
peptide: AICSRS[tBuAla]P[Oic]ICIPD-NH2
modifications: disulfide 3-11; N-terminus assumed
SMILES: CC[C@H](C)[C@H](NC(=O)[C@H](C)N)C(=O)N[C@H]1CSSC[C@@H](C(=O)N[C@H](C(=O)N2CCC[C@H]2C(=O)N[C@@H](CC(=O)O)C(N)=O)[C@@H](C)CC)NC(=O)[C@H]([C@@H](C)CC)NC(=O)[C@@H]2C[C@@H]3CCCC[C@@H]3N2C(=O)[C@@H]2CCCN2C(=O)[C@H](CC(C)(C)C)NC(=O)[C@H](CO)NC(=O)[C@H](CCCNC(=N)N)NC(=O)[C@H](CO)NC1=O

Legend:
[1] = biological target: T1, Recombinant human MASP1 enzyme (fragment corresponding to amino acids 297-699, C-terminal His Tag) (human, UniProt P48740 297-699); test: cell-based or functional assay
T1 sequence: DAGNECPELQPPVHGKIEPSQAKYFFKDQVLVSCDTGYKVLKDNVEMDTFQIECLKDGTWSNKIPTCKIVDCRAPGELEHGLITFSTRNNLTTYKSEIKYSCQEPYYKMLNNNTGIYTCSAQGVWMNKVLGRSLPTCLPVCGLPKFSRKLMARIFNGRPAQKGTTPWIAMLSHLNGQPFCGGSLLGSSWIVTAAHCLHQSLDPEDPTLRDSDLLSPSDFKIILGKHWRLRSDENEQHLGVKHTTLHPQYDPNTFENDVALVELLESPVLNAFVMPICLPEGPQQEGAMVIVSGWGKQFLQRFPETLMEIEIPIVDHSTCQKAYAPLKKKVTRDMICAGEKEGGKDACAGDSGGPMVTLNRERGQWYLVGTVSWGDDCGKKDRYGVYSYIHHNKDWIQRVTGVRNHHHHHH

[2] = biological target: Recombinant human MASP2 enzyme (fragment corresponding to amino acids 297-686, C-terminal His Tag) (human, UniProt O00187 297-686); test: cell-based or functional assay
Recombinant human MASP2 enzyme (fragment corresponding to amino acids 297-686, C-terminal His Tag), sequence (O00187 other isoform, or with tags, fused parts or gaps limits assumed): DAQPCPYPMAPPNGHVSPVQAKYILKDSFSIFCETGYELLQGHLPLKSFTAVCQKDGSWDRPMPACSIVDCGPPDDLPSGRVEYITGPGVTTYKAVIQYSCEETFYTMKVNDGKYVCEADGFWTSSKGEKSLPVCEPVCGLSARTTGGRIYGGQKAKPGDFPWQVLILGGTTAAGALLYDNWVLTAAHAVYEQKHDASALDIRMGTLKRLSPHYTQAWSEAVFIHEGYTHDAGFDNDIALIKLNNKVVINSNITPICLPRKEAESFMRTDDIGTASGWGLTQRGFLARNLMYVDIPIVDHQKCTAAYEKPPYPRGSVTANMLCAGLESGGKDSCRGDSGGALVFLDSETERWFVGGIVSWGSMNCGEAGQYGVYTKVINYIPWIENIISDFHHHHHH

Binder | human MASP1 IC50 [1] [nM] | human MASP2 IC50 [2] [nM]
B1 | 8.1 | 56
B2 | 6.9 | 400
B3 | 9.3 | 64
B4 | 7 | 8.5
B5 | 7.8 | 190
B6 | 7.2 | 300
B7 | 7.6 | 63
B8 | 7.2 | 190
B9 | 7.3 | 19
B10 | 6.9 | 49
B11 | 7.3 | 1700
B12 | 8.2 | 72.5
B13 | 8.1 | 130
B14 | 8.1 | 35
B15 | 7.1 | 200
B16 | 7.4 | 260
